Results reported in patent US20250205169A1 (TIDAL THERAPEUTICS, published 2025).

Target: T1, CD206 on M2 macrophages derived from primary human PBMC (human (macrophages derived from primary …, UniProt P22897 19-1456))
T1 sequence (looked up): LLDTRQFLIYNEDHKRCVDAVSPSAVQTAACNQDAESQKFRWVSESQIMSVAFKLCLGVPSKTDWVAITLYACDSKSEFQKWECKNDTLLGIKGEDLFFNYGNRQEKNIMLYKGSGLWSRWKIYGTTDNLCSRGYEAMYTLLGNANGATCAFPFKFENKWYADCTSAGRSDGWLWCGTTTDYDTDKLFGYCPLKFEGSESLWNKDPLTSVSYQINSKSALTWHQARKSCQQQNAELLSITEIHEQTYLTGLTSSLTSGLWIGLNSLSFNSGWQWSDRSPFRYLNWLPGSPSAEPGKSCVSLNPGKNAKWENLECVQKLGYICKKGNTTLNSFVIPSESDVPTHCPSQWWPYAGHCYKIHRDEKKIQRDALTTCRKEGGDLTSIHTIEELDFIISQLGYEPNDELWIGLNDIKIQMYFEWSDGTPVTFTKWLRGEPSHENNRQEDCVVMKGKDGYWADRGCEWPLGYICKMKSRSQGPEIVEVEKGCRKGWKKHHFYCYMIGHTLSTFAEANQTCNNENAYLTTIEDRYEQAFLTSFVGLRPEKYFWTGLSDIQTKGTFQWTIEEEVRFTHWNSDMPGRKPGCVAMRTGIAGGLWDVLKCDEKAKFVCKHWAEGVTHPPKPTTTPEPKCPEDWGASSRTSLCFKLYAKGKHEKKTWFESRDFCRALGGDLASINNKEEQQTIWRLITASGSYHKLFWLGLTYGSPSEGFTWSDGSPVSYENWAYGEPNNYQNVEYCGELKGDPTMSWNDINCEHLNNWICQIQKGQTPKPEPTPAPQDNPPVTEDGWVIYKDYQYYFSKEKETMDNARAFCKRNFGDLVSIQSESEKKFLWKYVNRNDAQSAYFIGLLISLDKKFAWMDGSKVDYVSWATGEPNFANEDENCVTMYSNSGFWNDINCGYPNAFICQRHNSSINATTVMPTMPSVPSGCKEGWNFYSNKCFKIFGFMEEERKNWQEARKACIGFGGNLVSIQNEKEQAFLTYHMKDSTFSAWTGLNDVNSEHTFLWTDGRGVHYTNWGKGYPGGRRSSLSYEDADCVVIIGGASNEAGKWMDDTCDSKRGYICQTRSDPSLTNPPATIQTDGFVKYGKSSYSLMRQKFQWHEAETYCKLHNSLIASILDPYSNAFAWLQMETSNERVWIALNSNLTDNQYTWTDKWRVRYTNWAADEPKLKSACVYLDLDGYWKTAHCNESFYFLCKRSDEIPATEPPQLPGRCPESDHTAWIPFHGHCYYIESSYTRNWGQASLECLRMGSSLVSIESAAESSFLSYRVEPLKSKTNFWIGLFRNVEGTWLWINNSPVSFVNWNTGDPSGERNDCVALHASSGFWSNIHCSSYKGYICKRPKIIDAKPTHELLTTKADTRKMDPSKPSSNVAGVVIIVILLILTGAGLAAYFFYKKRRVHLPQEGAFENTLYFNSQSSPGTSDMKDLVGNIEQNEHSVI
Assay: cell-based or functional assay

B1: anti-CD206 VHH targeting moiety (aCD206 VHH), as DSPE-PEG2k-anti-CD206 VHH conjugate inserted into LNPs (VHH)
VHH: QVQLQESGGGLVQAGGSLRLSCAASGFTDDDYDIGWFRQAPGKEREGVSCISSSDGSTYYADSVKGRFTISSDNAKNTVYLQMNSLKPEDTAVYYCAADFFRWDSGSYYVRGCRHATYDYWGQGTQVTVSS
modifications: DSPE-PEG(2k)-maleimide covalently coupled to the thiol of a C-terminal cysteine residue
For B1, which “GFP protein expression (MFI of transfected macrophages), fold difference between non-targeted and aCD206 targeted LNPs; Lipid 19A” value is on record?
Its value is 11 fold.

What about the “GFP protein expression (MFI of transfected macrophages), fold difference between non-targeted and aCD206 targeted LNPs; Lipids 15 and 46” value of the same binder?
The value was 2 fold.
